The record followed here is patent US20220249563A1 (LEGEND BIOTECH IRELAND, published 2022).

The chains are these.
B1: AS64130 (VHH)
VHH: EVQLAESGGGSVQAGGSLRLSCAASGYTYRSNFMGWFRQAPAKEREGVATIDSRGTITYYADSVKGRFTISQDNEKNTVYLQMNSLKPEDTAMYYCAAGGPRTNDDRWYPLRPPGYNYWGQGTQVTVSS
notes: camel sdAb; crude E. coli supernatant
B2: AS75383 (VHH)
VHH: EVQLAESGGGSVQAGGSLRLSCVASGYTFSSYCLGWFRQAPGKQRQGVATFNNRGVANYHDSVKGRFTASVDNAKNTLLLQMNSLEPDDTAMYYCAADRRYGRQWYQPCEWNTWGQGTQVTVSS
notes: as for B1
B3: AS63932 (VHH)
VHH: QVQLEESGGGSVQAGGSLRLSCVASGYTYGSTFMGWFRQNPGKEREGVAVIYTGGGSTWYASSVKGRFTISQDNAKNTVYLQMNSLKPEDTAMYYCAARYGSGNVNYWGQGTQVTVSS
notes: as for B1
B4: AS64114 (VHH)
VHH: QVQLQESGGGSVQAGGSLTLSCEASGNTYSTNYMGWFRQAPGKEREEVAVIYTRGGHTYYVDSVRGRFTISQDNAKNTVYLQMNSLKPEDTAMYYCAAASRHRLRLNNPRDYDYWGQGTQVTVSS
notes: as for B1
B5: AS64123 (VHH)
VHH: QVQLAESGGGSVQAGGSLRLSCAASGYTYTSNWLGWFRQAPGKEREEVAIIYTGSGSTHYRSSVKGRFTISQDNAKNTVYLQMNSLKPEDTAMYYCAARFSEYNYWGQGTQVTVSS
notes: as for B1
B6: AS63999 (VHH)
VHH: B5 VHH with Q1E, A5V, T30S, L34M, S55G, G56I, F100Y, S101T, E102D
notes: as for B1
B7: AS75751 (VHH)
VHH: QVRLVESGGGSVQAGGSLRLSCVASGYFYNTYYFMGWFRQAPGKEREGVAAIDTDGRTSYADSVKGRFTISKDNAKNTLYLQMNSLKPEDTAMYYCAAGFGYMNVIQALNGMRQNPDYWGQGTQVTVSS
notes: as for B1
B8: AS64097 (VHH)
VHH: QVHLMESGGGSVQAGGSLRLSCEASGYTYSRNCMGWFRQAPGKEREGVAAINTGGGSTYYADSLEGRFTISQDNAKNTMYLQMNSLKPEDTAMYYCAAGPDLGGSWCRPVERAFTYWGQGTQVTVSS
notes: as for B1
B9: AS75378 (VHH)
VHH: QVQLEESGGGSVQAGGSLRLSCVVSGNTRSTTYMGWFRQAPGKEREGVAIVYTGGRDTYYAASVKGRFTISQDNAKTTIYLQMNSLEPEDTAMYYCAARSYEYTYWGRGTQVTVSS
notes: as for B1
B10: AS68351 (VHH)
VHH: QVQLEESGGGLVQPGGSLRLSCAASGDTFRAYYMNWVRQAPGKGFEWVSGISASGGRTSYADSVKGRFTISRDNAKNTLYLQLNSLSTEDTGMYYCVKGAVRLSTSSVRDSSWGQGTQVTVSS
notes: as for B1
B11: AS64072 (VHH)
VHH: QVQLVESGGGSVQAGGFLRLSCALSGYSYYINLMAWFRQAPGKEREAVAAHGPVSGTAYYTDSVKGRFTISRDPGKNTMYLQMFSLQPEDTALYYCAAETTMGWAHERGYRYWGQGTQVTVSS
notes: as for B1
B12: AS64137 (VHH)
VHH: QVRLVESGGGSVQAGGSLRLSCAASGSTYSTNFMGWFRQAPGKEREGVATLVTWVERTAYADSVKGRFTISQDRAKNTVYLQMNSLKPEDTAMYYCAAAAASTDVRLLDPGDFAYWGQGTQVTVSS
notes: as for B1
B13: AS76422 (VHH)
VHH: QVKLVESGGGSVQAGGSLRLSCAASGYTFAGNCLGWFRQAPGKGREGVVTYNNFGVANYADSVKGRFTVSQDNAKNTLLLQMNSLEPEDTAMYYCAADRRDGRRWSQPCEWNTWGQGTQVTVSS
notes: as for B1

Substitutions are numbered along the chain they refer to.

The experiment deals with T1, extracellular domain of human DLL3 protein (aa27-466) having an N-terminal FLAG tag (AdipoGen, AG-40B-0151) (human, UniProt Q9NYJ7 27-466).
T1 construct: range 27-466; also called DLL3 ECD protein
T1 sequence (looked up): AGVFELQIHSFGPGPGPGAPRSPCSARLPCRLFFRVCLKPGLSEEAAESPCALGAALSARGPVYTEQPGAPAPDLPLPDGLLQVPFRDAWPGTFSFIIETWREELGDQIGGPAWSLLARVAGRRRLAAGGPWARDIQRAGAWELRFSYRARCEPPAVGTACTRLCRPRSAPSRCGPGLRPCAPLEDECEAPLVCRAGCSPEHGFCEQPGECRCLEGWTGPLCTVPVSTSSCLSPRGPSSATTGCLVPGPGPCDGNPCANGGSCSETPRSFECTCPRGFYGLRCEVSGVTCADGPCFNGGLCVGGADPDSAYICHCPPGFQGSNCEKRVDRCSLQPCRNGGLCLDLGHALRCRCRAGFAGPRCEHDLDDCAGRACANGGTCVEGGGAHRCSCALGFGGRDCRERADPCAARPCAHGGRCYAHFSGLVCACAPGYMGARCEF
Nature of the experiment: ELISA (protein), FACS (cells). A general note: An ELISA detects its analyte on a solid surface through an enzyme-linked reagent.
Regarding B1, the binding result is “binds”.
Regarding B2, the binding result is “binds”.
With B3, the binding result was “binds”.
The entry for B4 is “binds”; for B5 it is “binds”.
In the case of B6 it was “binds”.
The entry for B7 is “binds”.
For B8, the binding result is “binds”.
For the molecule B9, the binding result is listed as “binds”.
The entry for B10 is “binds”; for B11 it is “binds”; for B12 it is “binds”.
Regarding B13, the binding result is on record as “binds”.
